This note sets out measurements from article PMC7026639.

Series [1] deals with T1, HhaI restriction endonuclease (R.HhaI) (Haemophilus haemolyticus NEB129 (now …, UniProt A0ABF7PI58 1-258)). Nature of the series: X-ray crystallography.
In series [2] the target is T1, HhaI restriction endonuclease (R.HhaI). Kind of series: X-ray crystallography. This is another data set of the same source.

Read-outs that look alike come from different tables or passages of the source.

B1: 14-bp cognate oligo (dsDNA)
DNA 1: TCCAAGCGCAACAG
DNA 2: CTGTTGCGCTTGGA
For the molecule B1, the binding result in series [1] is listed as “binds”.

B2: 13-bp iodo oligo (dsDNA)
DNA 1: TCCAAGCGCAACG
DNA 2: CGUTGCGCTUGGA
modifications: 5-iodo-uridine at positions 3 and 10 of strand 2 (printed as I, written as U)
Turning to B2, in series [2], the binding result is listed as “binds”.
